Data from PMC1888729, “Control of Pre-mRNA Splicing by the General Splicing Factors PUF60 and U2AF65”.

Assays:
[1] = target: T1, PUF60 (short isoform PUF60S, HEK-293E-derived) (Homo sapiens, UniProt Q9UHX1-2 1-542); assay: EMSA; PUF60 alone; 25 mM Tris pH 7.5, 25 mM NaCl, 1 mM EDTA, 0.1 mg/ml tRNA, 0.5 mg/ml BSA, ~0.2 nM RNA, 60 min room temperature (6% native gel in cold room); footprints same plus 1 U/ml RNasin, 30 min, then 2.6 mg/ml tRNA with RNase 5 min; details: protein: recombinant; label: 32P; single strand
T1 sequence (Q9UHX1 other isoform, or with tags, fused parts or gaps): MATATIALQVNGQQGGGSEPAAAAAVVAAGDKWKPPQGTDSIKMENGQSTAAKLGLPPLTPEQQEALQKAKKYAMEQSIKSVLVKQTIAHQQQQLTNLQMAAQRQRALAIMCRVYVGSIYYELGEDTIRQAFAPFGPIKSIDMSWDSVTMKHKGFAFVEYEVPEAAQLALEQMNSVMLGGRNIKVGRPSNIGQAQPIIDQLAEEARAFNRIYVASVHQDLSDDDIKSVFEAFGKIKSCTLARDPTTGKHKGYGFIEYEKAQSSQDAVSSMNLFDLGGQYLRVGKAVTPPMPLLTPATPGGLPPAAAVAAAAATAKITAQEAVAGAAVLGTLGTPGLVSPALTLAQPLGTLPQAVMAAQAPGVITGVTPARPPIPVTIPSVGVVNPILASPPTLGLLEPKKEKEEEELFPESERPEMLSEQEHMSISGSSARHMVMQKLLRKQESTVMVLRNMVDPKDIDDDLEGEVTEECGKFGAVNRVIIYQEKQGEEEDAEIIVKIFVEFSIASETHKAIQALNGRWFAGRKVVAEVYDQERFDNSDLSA

U2AF65 (in U2AF65/35 …) = target: U2AF65 (in U2AF65/35 heterodimer);U2AF35 (in U2AF65/35 heterodimer) (Homo sapiens;Homo sapiens, UniProt P26368;Q01081 1-475;1-240, |); assay: EMSA; U2AF65/35 alone; 25 mM Tris pH 7.5, 25 mM NaCl, 1 mM EDTA, 0.1 mg/ml tRNA, 0.5 mg/ml BSA, ~0.2 nM RNA, 60 min room temperature (6% native gel in cold room); footprints same plus 1 U/ml RNasin, 30 min, then 2.6 mg/ml tRNA with RNase 5 min; details: protein: recombinant;recombinant; tags: ;; copies: 1;1; label: 32P; single strand
Chain of U2AF65 (in U2AF65/35 heterodimer);U2AF35 (in U2AF65/35 heterodimer) (P26368 whole entry, chain 1 of 2, canonical isoform): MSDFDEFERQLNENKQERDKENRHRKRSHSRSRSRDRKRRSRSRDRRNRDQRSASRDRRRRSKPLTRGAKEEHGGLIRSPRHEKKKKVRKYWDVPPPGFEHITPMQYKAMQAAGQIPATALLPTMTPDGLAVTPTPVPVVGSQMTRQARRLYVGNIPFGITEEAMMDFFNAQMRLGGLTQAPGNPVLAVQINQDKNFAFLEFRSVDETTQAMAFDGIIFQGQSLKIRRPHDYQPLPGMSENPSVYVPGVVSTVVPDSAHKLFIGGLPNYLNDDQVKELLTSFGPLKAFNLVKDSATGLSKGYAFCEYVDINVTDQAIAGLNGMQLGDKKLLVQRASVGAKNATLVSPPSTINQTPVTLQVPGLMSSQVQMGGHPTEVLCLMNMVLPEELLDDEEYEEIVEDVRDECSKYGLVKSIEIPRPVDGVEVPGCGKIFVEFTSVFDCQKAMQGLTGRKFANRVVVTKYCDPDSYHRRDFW
Chain of U2AF65 (in U2AF65/35 heterodimer);U2AF35 (in U2AF65/35 heterodimer) (Q01081 whole entry, chain 2 of 2, canonical isoform): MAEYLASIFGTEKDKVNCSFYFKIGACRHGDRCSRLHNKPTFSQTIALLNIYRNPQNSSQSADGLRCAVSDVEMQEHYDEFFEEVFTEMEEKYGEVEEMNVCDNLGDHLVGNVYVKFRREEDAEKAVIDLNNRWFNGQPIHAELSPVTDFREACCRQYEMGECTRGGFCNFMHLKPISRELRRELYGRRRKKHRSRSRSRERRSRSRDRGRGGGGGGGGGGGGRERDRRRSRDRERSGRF

[2] = target: T1, PUF60 (short isoform PUF60S, …); assay: EMSA; with U2AF65/35; PUF60 binding enhanced, U2AF:RNA complex decreases; 25 mM Tris pH 7.5, 25 mM NaCl, 1 mM EDTA, 0.1 mg/ml tRNA, 0.5 mg/ml BSA, ~0.2 nM RNA, 60 min room temperature (6% native gel in cold room); footprints same plus 1 U/ml RNasin, 30 min, then 2.6 mg/ml tRNA with RNase 5 min; details: protein: recombinant; label: 32P; single strand

Measured: binding result

UUCGUGCUGACCCUGUCCCUUUUUUUUCCACAGC (ssRNA) [AdML 3' splice-site RNA, 34 nt]
binds: all assays above
